{"source": "patent US20180086849A1", "about": "(Hoffmann-La Roche, published 2018)", "binders": {"B1": {"name": "1+1 IgG Crossfab; VL/VH exchange (LC007/V9), anti-MCSP/anti-huCD3 (bispecific antibody)", "chain 1": "DIVLTQSPSSLSASLGDRVTISCSASQGIRNYLNWYQQRPDGTVKLLIYYTSSLHSGVPSRFSGSGSGTDYSLTISNLEPEDIATYYCQQYSKLPWTFGGGTKLEIKRTVAAPSVFIFPPSDEQLKSGTASVVCLLNNFYPREAKVQWKVDNALQSGNSQESVTEQDSKDSTYSLSSTLTLSKADYEKHKVYACEVTHQGLSSPVTKSFNRGEC", "chain 2": "DIQMTQSPSSLSASVGDRVTITCRASQDIRNYLNWYQQKPGKAPKLLIYYTSRLESGVPSRFSGSGSGTDYTLTISSLQPEDFATYYCQQGNTLPWTFGQGTKVEIKSSASTKGPSVFPLAPSSKSTSGGTAALGCLVKDYFPEPVTVSWNSGALTSGVHTFPAVLQSSGLYSLSSVVTVPSSSLGTQTYICNVNHKPSNTKVDKKVEPKSCGGGGSGGGGSEVQLQESGPGLVKPSQSLSLTCSVTGYSITSGYYWNWIRQFPGNKLEWMGYITYDGSNNYNPSLKNRISITRDTSKNQFFLKLNSVTTEDTATYYCADFDYWGQGTTLTVSSASTKGPSVFPLAPSSKSTSGGTAALGCLVKDYFPEPVTVSWNSGALTSGVHTFPAVLQSSGLYSLSSVVTVPSSSLGTQTYICNVNHKPSNTKVDKKVEPKSCDKTHTCPPCPAPEAAGGPSVFLFPPKPKDTLMISRTPEVTCVVVDVSHEDPEVKFNWYVDGVEVHNAKTKPREEQYNSTYRVVSVLTVLHQDWLNGKEYKCKVSNKALGAPIEKTISKAKGQPREPQVCTLPPSRDELTKNQVSLSCAVKGFYPSDIAVEWESNGQPENNYKTTPPVLDSDGSFFLVSKLTVDKSRWQQGNVFSCSVMHEALHNHYTQKSLSLSPGK", "chain 3": "EVQLVESGGGLVQPGGSLRLSCAASGYSFTGYTMNWVRQAPGKGLEWVALINPYKGVSTYNQKFKDRFTISVDKSKNTAYLQMNSLRAEDTAVYYCARSGYYGDSDWYFDVWGQGTLVTVSSASVAAPSVFIFPPSDEQLKSGTASVVCLLNNFYPREAKVQWKVDNALQSGNSQESVTEQDSKDSTYSLSSTLTLSKADYEKHKVYACEVTHQGLSSPVTKSFNRGEC", "chain 4": "not shown"}, "B2": {"name": "M4-3(B7)/ML2 (IgG) (antibody, V domains shown)", "VH": "QVQLQESGPGLVKPSQTLSLTCTVSGGSITSGYYWNWIRQHPGKGLEWIGYITFDGINNYNPSLKSRVTISRDTSKNQFSLKLSSVTAADTAVYYCADFDYWGQGTLVTVSS", "VL": "DIQMTQSPSSLSASVGDRVTITCRASQGIRNYLNWYQQKPGKAPKLLIYYTSSLHSGVPSRFSGSGSGTDFTLTISSLQPEDFATYYCQQYSKLPWTFGQGTKVEIK", "notes": "Human IgG1 format"}, "B3": {"name": "M4-3(C1)/ML2(G3) (IgG) (antibody, V domains shown)", "VH": "B2 VH with I57S", "VL": "DIQMTQSPSSLSASVGDRVTITCRASQGIRNYLNWYQQKPGKAPKLLIYYTSSLHSGVPSRFSGSGSGTDYTLTISSLQPEDFATYYCQQYSALPWTFGQGTKVEIKR", "notes": "Human IgG1; also called MCSP M4-3(C1) ML2(G3)"}, "B4": {"name": "M4-3(A7)/ML2 (IgG) (antibody, V domains shown)", "VH": "B2 VH with S31D, I57R", "VL": "B2 VL", "notes": "Human IgG1 format"}, "B5": {"name": "M4-3/ML2 (E10) (IgG) (antibody, V domains shown)", "VH": "B2 VH with F54Y, I57S", "VL": "B2 VL with Q27Y, N31G, Y87H", "notes": "Human IgG1 format"}, "B6": {"name": "M4-3(B8)/ML2 (IgG) (antibody, V domains shown)", "VH": "B2 VH with I57R", "VL": "B2 VL", "notes": "Human IgG1 format"}, "B7": {"name": "M4-3/ML2 (C5) (IgG) (antibody, V domains shown)", "VH": "B2 VH with F54Y, I57S", "VL": "B2 VL with Q27R, N31E, S52G, K93E", "notes": "Human IgG1 format"}, "B8": {"name": "M4-3(D6)/ML2 (IgG) (antibody, V domains shown)", "VH": "B2 VH with I57K", "VL": "B2 VL", "notes": "Human IgG1 format"}, "B9": {"name": "M4-3(C1)/ML2(E10) (IgG) (antibody, V domains shown)", "VH": "B2 VH with I57S", "VL": "B2 VL with Q27Y, N31G, Y87H", "notes": "Human IgG1 format"}, "B10": {"name": "M4-3/ML2(G3) (IgG) (antibody, V domains shown)", "VH": "B2 VH with F54Y, I57S", "VL": "B2 VL with F71Y, K93A", "notes": "Human IgG1 format"}, "B11": {"name": "M4-3/ML2 (E10/G3) (IgG) (antibody, V domains shown)", "VH": "B2 VH with F54Y, I57S", "VL": "B2 VL with Q27Y, N31G, Y87H, K93A", "notes": "Human IgG1 format"}, "B12": {"name": "M4-3/ML2 (C5/G3) (IgG) (antibody, V domains shown)", "VH": "B2 VH with F54Y, I57S", "VL": "B2 VL with Q27R, N31E, S52G, K93A", "notes": "Human IgG1 format"}, "B13": {"name": "M4-3(A7)/ML2(E10) (IgG) (antibody, V domains shown)", "VH": "B2 VH with S31D, I57R", "VL": "B2 VL with Q27Y, N31G, Y87H", "notes": "Human IgG1 format"}, "B14": {"name": "M4-3(C1)/ML2 (IgG) (antibody, V domains shown)", "VH": "B2 VH with I57S", "VL": "B2 VL", "notes": "Human IgG1 format"}, "B15": {"name": "M4-3(A7)/ML2(G3) (IgG) (antibody, V domains shown)", "VH": "B2 VH with S31D, I57R", "VL": "B2 VL with F71Y, K93A", "notes": "Human IgG1 format"}, "B16": {"name": "M4-3(C1)/ML2(C5) (IgG) (antibody, V domains shown)", "VH": "B2 VH with I57S", "VL": "B2 VL with Q27R, N31E, S52G, K93E", "notes": "Human IgG1 format"}}, "note": "Numbering of substitutions follows the chain as printed."}
{"biological_target": "human MCSP (Melanoma-associated Chondroitin Sulfate Proteoglycan) on cells (human, UniProt Q6UVK1 30-2322)", "sequence (Q6UVK1 30-2322)": "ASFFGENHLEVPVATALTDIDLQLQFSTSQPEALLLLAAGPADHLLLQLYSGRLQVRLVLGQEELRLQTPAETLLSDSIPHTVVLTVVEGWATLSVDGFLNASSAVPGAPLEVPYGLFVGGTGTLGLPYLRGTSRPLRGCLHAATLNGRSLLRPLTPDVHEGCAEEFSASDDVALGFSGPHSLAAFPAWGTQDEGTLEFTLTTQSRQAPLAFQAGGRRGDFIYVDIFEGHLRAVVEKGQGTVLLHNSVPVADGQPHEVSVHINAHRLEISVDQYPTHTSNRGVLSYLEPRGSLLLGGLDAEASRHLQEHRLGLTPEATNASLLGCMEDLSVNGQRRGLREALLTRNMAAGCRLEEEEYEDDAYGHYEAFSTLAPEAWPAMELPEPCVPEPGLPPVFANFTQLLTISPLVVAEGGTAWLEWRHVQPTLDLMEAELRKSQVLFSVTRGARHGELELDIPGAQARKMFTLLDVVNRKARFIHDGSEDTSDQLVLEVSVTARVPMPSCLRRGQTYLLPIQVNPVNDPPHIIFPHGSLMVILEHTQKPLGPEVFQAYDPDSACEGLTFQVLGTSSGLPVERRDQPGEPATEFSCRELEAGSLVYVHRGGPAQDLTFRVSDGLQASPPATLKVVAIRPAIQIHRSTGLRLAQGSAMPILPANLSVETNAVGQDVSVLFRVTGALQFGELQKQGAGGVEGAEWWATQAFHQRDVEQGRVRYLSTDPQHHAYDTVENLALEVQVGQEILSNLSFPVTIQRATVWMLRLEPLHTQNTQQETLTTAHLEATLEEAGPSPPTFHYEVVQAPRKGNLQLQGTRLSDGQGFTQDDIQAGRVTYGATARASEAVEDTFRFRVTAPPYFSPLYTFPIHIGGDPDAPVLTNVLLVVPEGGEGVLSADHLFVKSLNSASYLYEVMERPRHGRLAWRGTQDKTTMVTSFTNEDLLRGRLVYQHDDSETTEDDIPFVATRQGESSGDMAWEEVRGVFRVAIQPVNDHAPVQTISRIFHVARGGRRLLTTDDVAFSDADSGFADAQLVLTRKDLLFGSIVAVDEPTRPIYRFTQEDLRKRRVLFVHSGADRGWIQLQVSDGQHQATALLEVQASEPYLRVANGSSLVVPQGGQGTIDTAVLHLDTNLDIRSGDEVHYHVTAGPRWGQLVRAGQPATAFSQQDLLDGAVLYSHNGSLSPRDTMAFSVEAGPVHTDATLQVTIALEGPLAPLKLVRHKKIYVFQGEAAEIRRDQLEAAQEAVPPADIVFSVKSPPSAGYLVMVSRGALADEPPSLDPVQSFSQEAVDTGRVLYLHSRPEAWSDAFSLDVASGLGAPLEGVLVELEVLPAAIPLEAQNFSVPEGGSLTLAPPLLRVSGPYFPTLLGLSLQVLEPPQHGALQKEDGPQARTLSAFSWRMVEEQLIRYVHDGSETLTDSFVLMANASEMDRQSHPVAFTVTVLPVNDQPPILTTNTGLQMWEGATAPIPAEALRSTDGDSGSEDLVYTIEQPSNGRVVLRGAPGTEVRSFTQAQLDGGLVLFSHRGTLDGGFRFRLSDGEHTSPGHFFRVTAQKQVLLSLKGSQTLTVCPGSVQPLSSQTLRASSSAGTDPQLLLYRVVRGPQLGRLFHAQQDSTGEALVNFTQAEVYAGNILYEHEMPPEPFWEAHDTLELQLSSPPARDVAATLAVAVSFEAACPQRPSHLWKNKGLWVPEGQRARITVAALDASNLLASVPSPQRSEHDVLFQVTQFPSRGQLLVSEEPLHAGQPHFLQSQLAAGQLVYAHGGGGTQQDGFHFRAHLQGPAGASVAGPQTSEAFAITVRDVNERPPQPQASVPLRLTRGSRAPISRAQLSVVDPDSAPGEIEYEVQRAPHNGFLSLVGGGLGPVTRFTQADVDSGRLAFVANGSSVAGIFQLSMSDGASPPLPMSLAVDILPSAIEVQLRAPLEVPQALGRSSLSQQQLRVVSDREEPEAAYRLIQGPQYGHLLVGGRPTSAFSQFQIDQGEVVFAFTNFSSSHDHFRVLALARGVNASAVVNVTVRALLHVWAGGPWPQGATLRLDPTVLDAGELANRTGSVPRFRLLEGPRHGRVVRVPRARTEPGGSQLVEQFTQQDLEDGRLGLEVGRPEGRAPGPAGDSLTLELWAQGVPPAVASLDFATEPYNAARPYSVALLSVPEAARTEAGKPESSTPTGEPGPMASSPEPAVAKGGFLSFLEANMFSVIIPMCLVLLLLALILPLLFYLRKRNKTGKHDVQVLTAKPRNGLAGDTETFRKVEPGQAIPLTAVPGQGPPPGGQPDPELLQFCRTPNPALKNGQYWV", "experiment": "cell-based or functional assay", "units": {"EC50 of T cell-mediated killing (LDH release) of MV-3 cells, human PBMCs, 21 h": "nM", "EC50 of T cell-mediated killing (LDH release) of WM266-4 cells, human PBMCs, 21 h": "nM"}}
{"binder": "B1", "EC50 of T cell-mediated killing (LDH release) of MV-3 cells, human PBMCs, 21 h": 0.0409, "EC50 of T cell-mediated killing (LDH release) of WM266-4 cells, human PBMCs, 21 h": 0.0284}
{"biological_target": "T1, hu-MCSP(D3 domain)-avi-his (human, UniProt Q6UVK1 1582-2224, biotinylated where used for selection or for coupling to the SA chip)", "T1 construct": "also called human MCSP(D3 domain)-avi-his; human MCSP D3", "T1 sequence": "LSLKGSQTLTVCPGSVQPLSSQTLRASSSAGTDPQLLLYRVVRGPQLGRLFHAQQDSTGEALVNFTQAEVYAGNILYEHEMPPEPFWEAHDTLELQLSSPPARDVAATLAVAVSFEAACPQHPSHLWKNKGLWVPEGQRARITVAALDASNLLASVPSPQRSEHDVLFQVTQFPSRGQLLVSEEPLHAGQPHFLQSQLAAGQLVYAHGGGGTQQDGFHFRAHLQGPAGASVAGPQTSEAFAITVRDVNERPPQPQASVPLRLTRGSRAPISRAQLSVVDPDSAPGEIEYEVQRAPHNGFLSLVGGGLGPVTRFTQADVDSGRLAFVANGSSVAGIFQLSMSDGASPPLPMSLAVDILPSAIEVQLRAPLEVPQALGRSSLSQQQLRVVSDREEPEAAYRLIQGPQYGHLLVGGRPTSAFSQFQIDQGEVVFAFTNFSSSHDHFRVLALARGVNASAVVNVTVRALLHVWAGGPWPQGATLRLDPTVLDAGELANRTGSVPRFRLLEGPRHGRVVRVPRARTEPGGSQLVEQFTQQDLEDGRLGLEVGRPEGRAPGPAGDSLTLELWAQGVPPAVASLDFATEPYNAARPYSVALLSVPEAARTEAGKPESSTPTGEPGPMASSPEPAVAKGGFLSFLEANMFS", "experiment": "SPR (ProteOn XPR36), IgG KD against parental M4-3/ML2", "experimental": "(§1) Briefly, carboxymethylated dextran biosensor chips (CM5, GE Healthcare) were activated with N-ethyl-N′-(3-dimethylaminopropyl)-carbodiimide hydrochloride (EDC) and N-hydroxysuccinimide (NHS) according to the supplier's instructions. Anti-human F(ab′)2 fragment specific capture antibody was diluted with 10 mM sodium acetate, pH 5.0 at 50 μg/ml before injection at a flow rate of 10 μl/minute to achieve approximately up to 10.000 response units (RU) of coupled capture antibody. Following the injection of the capture antibody, 1 M ethanolamine was injected to block unreacted groups. For kinetics measurements, Fabs from bacterial supernatant or purified Fabs are injected at a flow rate of 10 ul/minute for 300 s and a dissociation of 300 s for capture baseline stabilization. […] The surface of the sensorchip was regenerated by injection of glycine pH 1.5 for 30 s at 90 ul/min followed by injection of NaOH for 20 s at the same flow rate. Association rates (kon) and dissociation rates (koff) were calculated using a simple one-to-one Langmuir binding model (ProteOn XPR36 Evaluation Software or Scrubber software (BioLogic)) by simultaneously fitting the association and dissociation sensorgrams. The equilibrium dissociation constant (KD) was calculated as the ratio koff/kon. […] Since CDR1 and 2 of the light chain were randomized independent from CDR3, the obtained CDRs were combined during IgG conversion.\n(§2) In the IgG format affinities were measured again to the human MCSP antigen (SEQ ID NO. 390), in addition also to the cynomolgus homologue (SEQ ID NO. 389). Method exactly as described for the Fab fragments, just purified IgG from mammalian production were used.", "units": {"Comparative binding affinity - Fold increase over parent": "fold"}}
{"binder": "B2", "Comparative binding affinity - Fold increase over parent": 4}
{"binder": "B3", "Comparative binding affinity - Fold increase over parent": 28.6}
{"binder": "B4", "Comparative binding affinity - Fold increase over parent": 2.5}
{"binder": "B5", "Comparative binding affinity - Fold increase over parent": 2}
{"binder": "B6", "Comparative binding affinity - Fold increase over parent": 2.2}
{"binder": "B7", "Comparative binding affinity - Fold increase over parent": 5}
{"binder": "B8", "Comparative binding affinity - Fold increase over parent": 5}
{"binder": "B9", "Comparative binding affinity - Fold increase over parent": 4}
{"binder": "B10", "Comparative binding affinity - Fold increase over parent": 6.7}
{"binder": "B11", "Comparative binding affinity - Fold increase over parent": 5}
{"binder": "B12", "Comparative binding affinity - Fold increase over parent": 2.9}
{"binder": "B13", "Comparative binding affinity - Fold increase over parent": 6.7}
{"binder": "B14", "Comparative binding affinity - Fold increase over parent": 2.2}
{"binder": "B15", "Comparative binding affinity - Fold increase over parent": 28.6}
{"binder": "B16", "Comparative binding affinity - Fold increase over parent": 10}
{"biological_target": "T2, cynomolgus MCSP D3 (cynomolgus, UniProt Q6UVK1 1582-2224 (human entry))", "T2 construct": "also called cynomolgus homologue; not shown: C-terminal tag", "T2 chain": "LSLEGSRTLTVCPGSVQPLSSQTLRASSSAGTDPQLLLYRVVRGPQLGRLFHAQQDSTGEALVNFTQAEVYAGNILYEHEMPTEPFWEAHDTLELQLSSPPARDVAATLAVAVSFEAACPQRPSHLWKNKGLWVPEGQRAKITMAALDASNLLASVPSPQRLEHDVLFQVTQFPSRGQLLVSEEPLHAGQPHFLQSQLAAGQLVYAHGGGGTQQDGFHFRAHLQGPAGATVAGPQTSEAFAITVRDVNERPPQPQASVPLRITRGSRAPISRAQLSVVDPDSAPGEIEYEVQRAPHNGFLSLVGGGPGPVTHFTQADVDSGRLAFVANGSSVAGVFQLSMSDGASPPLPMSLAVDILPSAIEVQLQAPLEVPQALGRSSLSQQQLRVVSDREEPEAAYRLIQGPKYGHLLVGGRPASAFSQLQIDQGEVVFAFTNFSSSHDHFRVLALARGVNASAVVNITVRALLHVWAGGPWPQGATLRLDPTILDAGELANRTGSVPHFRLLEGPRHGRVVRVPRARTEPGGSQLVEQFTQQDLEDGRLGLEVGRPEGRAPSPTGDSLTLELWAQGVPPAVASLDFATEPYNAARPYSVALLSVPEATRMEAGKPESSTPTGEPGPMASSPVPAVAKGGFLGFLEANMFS", "experiment": "SPR (ProteOn XPR36), IgG KD against parental M4-3/ML2", "experimental": "as §1, §2", "units": {"Comparative binding affinity - Fold increase over parent": "fold"}}
{"binder": "B2", "Comparative binding affinity - Fold increase over parent": 2.9}
{"binder": "B3", "Comparative binding affinity - Fold increase over parent": 10}
{"binder": "B4", "Comparative binding affinity - Fold increase over parent": 2}
{"binder": "B5", "Comparative binding affinity - Fold increase over parent": 1}
{"binder": "B6", "Comparative binding affinity - Fold increase over parent": 2}
{"binder": "B7", "Comparative binding affinity - Fold increase over parent": 2}
{"binder": "B8", "Comparative binding affinity - Fold increase over parent": 2}
{"binder": "B9", "Comparative binding affinity - Fold increase over parent": 3.3}
{"binder": "B10", "Comparative binding affinity - Fold increase over parent": 3.3}
{"binder": "B11", "Comparative binding affinity - Fold increase over parent": 2.2}
{"binder": "B12", "Comparative binding affinity - Fold increase over parent": 2}
{"binder": "B13", "Comparative binding affinity - Fold increase over parent": 2.9}
{"binder": "B14", "Comparative binding affinity - Fold increase over parent": 2.5}
{"binder": "B15", "Comparative binding affinity - Fold increase over parent": 10}
{"binder": "B16", "Comparative binding affinity - Fold increase over parent": 6.7}
